Source: the supplement of paper PMC9170038

Tested on: MS2 coat protein
Assay: apparent KD of MS2 coat protein; higher = weaker reporter binding
Conditions: Eterna round: R107
In short: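 Binding of SNAP-549-labelled MS2 coat protein was measured on designed RNA switches transcribed on-chip from Illumina sequencing clusters. The protein rose in twofold steps from 0.7 or 1.5 nM to 3 µM, with 0.8–1.5 h per step early on and 10–20 min per step later, in 100 mM Tris-HCl pH 7.5, 80 mM KCl, 4 mM MgCl2, without or with constant ligand. Each design's apparent KD is the median of fits to its normalised cluster binding curves.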

[1] = input ligand: theophylline 20 uM
[2] = input ligand: tryptophan 2.4 mM
[3] = input ligand: theophylline 2 mM

Row | Sequence | apparent KD of MS2 coat protein (input ligand: arginine 13.2 mM) [nM] | apparent KD of MS2 coat protein [1] [nM] | apparent KD of MS2 coat protein [2] [nM] | apparent KD of MS2 coat protein (input ligand: none) [nM] | apparent KD of MS2 coat protein [3] [nM]
1 | GAUGAUAUUGCAGAUACCAGACACAUGAGGAUCACCCAUGUCGUUGGGUAGCUGGGUCGUGUCCCUUGGCAGCUGCGAUAUCAUC [#05 Exclusion-TheophyllineB] | 19.8 | 48.2 | 24.5 |  | 
2 | GAUGAUAUUGCAGAUACCAGACACAUGAGGAUCACCCAUGUCUCUGAGAUGAAGGAUCGUGUCCCUUGGCAGCUGCGAUAUCAUC [Bulgaria] | 25.1 | 72.9 | 30.3 |  | 
3 | GAUUACAUGAGGAUCACCCAUGUAACUGAAGGAGCGGUAAUAAAGCCAGGUAGGUCGCAGAACGACAUGUGGUUCAUCCAUGUAA [#15 Exclusion - Arginine A] | 14.3 | 46.9 | 30.4 | 39.1 | 35.5
4 | GAUUCGCAGUCGGCCGCCACUAACAUGAGCUGCUAGUUAUUAUCACAUGAGGAUCACCCAUGUCUUAGGACCGGGACAACCUGUU [theeternabot_sameState_MS2_Trp_B_26] | 48.3 | 79.1 |  |  | 85.3
5 | GCACGACAUGAGGAUCACCCAUGUGCAGAUACCAGUAGGAUAUCCUACCCUUGGCAGCUGAGUAGAUCUGGAGGACUAUAGGUAA [Same State Theophylline A GF9] | 15.5 | 23 | 18.3 | 17.9 | 21.2
6 | GCACUACAUGAGGAUCACCCAUGUGCAGAUACCAGAGGUGUAUGCCUCCCUUGGCAGCUGAGUAGCUCUGGAGGCCUAUUGGUUU [Same State Theophylline A GF15] | 15.7 | 20 | 16.8 |  | 
7 | GCACUACAUGAGGAUCACCCAUGUGCAGAUACCAGAGGUGUAUGCCUCCCUUGGCAGCUGCGUCGCUCUGGAAGCCUAUUGGUUU [Same State Theophylline A GF16] | 15.8 | 25.5 | 18.4 |  | 
8 | GCAUCCUAGUCGGCCGCCACUGACAUGAGGAUCACCCAUGUACAUGAGGAUCACCCAUGUUGUAACAGGACCGGGACUAGGAUGC [SS Tryp B #18] | 69.3 | 112 |  |  | 141
9 | GCAUCCUAGUCGGCCGCCACUGACAUGAGGAUCACCCAUGUACAUGAGGAUCACCCAUGUUGUAGCAGGACCGGGACUAGGAUGC [SS Tryp B #17] | 176 | 277 | 75.6 | 259 | 295
10 | GCAUCCUAGUCGGCCGCCACUGCAUGUAGUUUUGCUACAUGGAAACAUGAGGAUCACCCAUGUAGCAGGACCGGGACUAGGAUGC [(Trp1)-(TM)''-(TM)'-(Ms2)-(Trp2)_Design7] | 30.7 | 36.2 |  |  | 36
11 | GCAUCCUAGUCGGCCGCCACUGGUAUGAACACCUUCACCCGUGUGCACAUGAGGAUCACCCAUGUUAGGACCGGGACUAGGAUGC [SSTryp B #20] | 10 | 11.2 |  |  | 9.67
12 | GCCAAAAUACCCGAUACCAGUAUUAAUAGCACAACCUCACACAUGAGGAUCACCCAUGUAUACCCUUGGCAGCGGCCUAACAUAA [theeternabot_exclusion_MS2_Theo_B_49] | 30.5 | 55.3 | 36.9 |  | 
13 | GCGGUGGGUCAAAAGUAAUAGAAUUCUGAAGGAGCGUGAUGAAACACAGGUAGGUCGCAGGAACAUGAGGAUCACCCAUGUACGG [Same State Arginine A GF21] | 34.4 | 49 | 35.7 | 34 | 37.5
14 | GCUAGCCGAAAGGCUAGCAGCGCUACAGAAGGAGCGUGCGAAAGCACAGGUAGGUCGCUGAACAUGAGCAUCAGCCAUGUUGCGC [SSAA - Alter Amptam #2 V2+NP] | 14.8 | 18.5 | 11.7 | 12.2 | 18.6
15 | GCUAGGUCAUCGGCCGCCACUAUUAGUGGUUCGAACAUGAGGAUCACCCAUGUGCCACAUGCGCAUAGGACCGGGAUGACCUAGC [SSTB NP+V+V2 #8] | 11.8 | 18.2 |  |  | 13.7
16 | GCUAGGUCUACGGCCGCCACUAGACGUGGGUAAAACAUGAGGAUCACCCAUGUGCUACGGGCGAAUAGGACCGGGUAGACCUAGC [SSTB NP+V+V2 #15 +-Same Structure] | 60.1 | 529 | 85.4 | 368 | 711
17 | GCUAGUGGCAGAAGGAGCGACAUUAAAAGUGGUCGAUACAUGAGGAUCACCCAUGUACUAUGUCAGGUAGGUCGCUGCCACUAGC [EAB NP+V+V2 #4 +-Same Structure] | 27.8 | 39.1 | 30.7 | 30.7 | 36.6
18 | GCUGGGUGCGCAAGGACCUGGCGUUGCGAUACCAGCACGGUAACGUGCCCUUGGCAGCGCACAUGAGGAUCACCCAUGUGGUGUU [#1 Exclusion - Theophylline A Attempt #19 (HarryS)] | 62.8 | 360 | 221 |  | 
19 | GCUGUUGCGGUGAGGUAUCCGGCUGUGGAAGGAGCGCGGAAGGCCGCAGGUAGGUCGCCACAUGAGGAUCACCCAUGUCGAUAUA [Aninati] | 48.7 | 80.6 | 16.8 | 16.9 | 28.3
20 | GCUUGGGUGGCACAGCCCUGGCAGUGCGAUACCAGCACGGUAACGUGCCCUUGGCAGCGCACAUGAGGAUCACCCAUGUGGUGCG [#1 Exclusion - Theophylline A Attempt #25 (HarryS)] | 28.7 | 197 | 62.6 |  | 
